Measurements published in patent CN114075278A.
Read-outs that look alike come from different tables or passages of the source.

Assays:
流感A抗原 [1] = biological target: 流感A抗原
流感A抗原 [2] = test: biolayer interferometry, AMC sensors, antibody immobilised, antigen in a dilution series
流感A抗原 [3] = test: sandwich ELISA: antibody at 625 ng/ml captured on goat anti-mouse IgG, Flu-A antigen, HRP-labelled paired mAb
流感A抗原 [4] = test: sandwich ELISA: antibody at 1250 ng/ml captured on goat anti-mouse IgG, Flu-A antigen, HRP-labelled paired mAb
流感A抗原 [5] = test: sandwich ELISA: antibody at 2500 ng/ml captured on goat anti-mouse IgG, Flu-A antigen, HRP-labelled paired mAb
流感A抗原 [6] = test: sandwich ELISA: antibody at 5000 ng/ml captured on goat anti-mouse IgG, Flu-A antigen, HRP-labelled paired mAb
流感A抗原 [7] = test: sandwich ELISA: antibody at 312.5 ng/ml captured on goat anti-mouse IgG, Flu-A antigen, HRP-labelled paired mAb

B1: 实施例1的抗Flu-A抗体(WT) (antibody, V domains shown)
VH: EVQLQQSGPELVKPGASVKISCKASGFSFSGYYLHWVRQSPLKSLEWIGRINPYNGGTTYNQDFKGKASLTVDKSSSTAYMELHSLTSEDSAVYYCARYSSVDAMDYWGQGTSVTVSS
VL: QIVLTQSPAIMSASLGERVTMTCTGSSSVLSSYLHWYQQKPGSSPKLWIYSSSNLASGVPARFSGSGSGTSYSLTISSMEAEDAATYYCQQWHRSPWTFGGGTKLEIKR
With B1 the OD450 (ref 630 nm) (流感A抗原 [1]) was greater than 1 OD, the Kd (流感A抗原 [2]) was 40.5 nM and the OD450 (ref 630 nm) (流感A抗原 [3]) was 0.754 OD. The OD450 (ref 630 nm) (流感A抗原 [4]) was 0.946 OD, the OD450 (ref 630 nm) (流感A抗原 [5]) was 1.39 OD and the OD450 (ref 630 nm) (流感A抗原 [6]) was 1.73 OD. It also gave an OD450 (ref 630 nm) (流感A抗原 [7]) of 0.535 OD.
